Data on 21 sequences can be found in the DeepSol protein solubility set.

The data set in a line: soluble on expression in E. coli; label from the status in PepcDB or PDB records.
With “MTDFSVWETAPFGATVDHILQRYHNVHRAQFEELVPLAQKVAQVHADTFPAEIAELLAYMQNELLMHMMKEERMLFPMINQGVGRGAAMPIGVMMHEHEEHDRAIARLKELTDNFQPPEGACGSWTRLYALAKEMVEDLNDHIHLENDILFARVLDS”, the “soluble on expression in E. coli” value is recorded as “soluble”. For “MTDIIIVHSKHGNSKNHWYEWLRHNLTLEGYDVSLFNLEANDHAQIDEWVNEMKQQLHIRKKDTYFVTHGFGSIAALKFLEETHHHIEGFFSIAGFKEDAQDIDEDVDLKGVTIDYDKIKEQVDKFYGLTSKDDQYVSYKETQRLMNSLNGHTRVVEDGGHFLEEEGFVTFTSLINRMQGYMTRLEHHHHHH”, the “soluble on expression in E. coli” value is listed as “not soluble”. Under “MTDIISQNENKDDFEDGELPEDGEICDDEDESVKAVPSKSSESAPGAHIAPAHPEKTSGRDSRERVRRFEGNSPPRERDPDPFGSHNDAPDGNDYFGGDKDYRSGAAASSEEEPFSDTDYRVNRRRRLSPSHDDGDFDPRSKRPYYGGRGGFRGGFRNGAKPRFQTEHQICKFFREGYCRDGDNCLYSHQAEDSLRRPVLCNFYANSFCKKGLQCLMLHGEFPCKSFHKGQCNHDPCRFSHVPLTDYTRPIIEKILADEEARQAHQAQQAQTYRQNPVANAAAAAAAAQVMPRRRVLLPGGPNMNGSSPPHATPVIHAPIPQASHPSQLPPPAVVVPTIQRNPGPGIPIHQQYPVAPAAGGYFNQGPRPEQVQGLPPPRTIEPPRLSTQTPPIMHQQQPQLMRPMHPVPIQHPHLQQPGLVQPPQIVSQERHTASPQGFNLEAMLNKMANGEKLISSPRNNVVDDSPASPPPSNYSSMFGSSNRVAVIPQTVQVTWGLVRVQRRLPYSNVENPDRIAANDPRRAKAIAKQFDAFSSLLGAGGNAVSDPRLRAQKEKNDRQQNTMPFSSWMPQIS” stands “not soluble”.

In the case of “MTDKTIAFSLLDLAPIPEGSSAREAFSHSLDLARLAEKRGYHRYWLAEHHNMTGIASAATSVLIGYLAANTTTLHLGSGGVMLPNHSPLVIAEQFGTLNTLYPGRIDLGLGRAPGSDQRTMMALRRHMSGDIDNFPRDVAELVDWFDARDPNPHVRPVPGYGEKIPVWLLGSSLYSAQLAAQLGLPFAFASHFAPDMLFQALHLYRSNFKPSARLEKPYAMVCINIIAADSNRDAEFLFTSMQQAFVKLRRGETGQLPPPIQNMDQFWSPSEQYGVQQALSMSLVGDKAKVRHGLQSILRETDADEIMVNGQIFDHQARLHSFELAMDVKEELLG”, the “soluble on expression in E. coli” value is “soluble”.

With “MTDKTSLSYKDAGVDIDAGNALVGRIKGVVKKTRRPEVMGGLGGFGALCALPQKYREPVLVSGTDGVGTKLRLAMDLKRHDTIGIDLVAMCVNDLVVQGAEPLFFLDYYATGKLDVDTASAVISGIAEGCLQSGCSLVGGETAEMPGMYHGEDYDVAGFCVGVVEKSEIIDGSKVSDGDVLIALGSSGPHSNGYSLVRKILEVSGCDPQTTELDGKPLADHLLAPTRIYVKSVLELIEKVDVHAIAHLTGGGFWENIPRVLPDNTQAVIDESSWQWPEVFNWLQTAGNVEHHEMYRTFNCGVGMIIALPAPEVDKALALLNANGENAWKIGIIKASDSEQRVVIE”, the “soluble on expression in E. coli” value was “soluble”. Under “MTDNSKIRVVVGMSGGVDSSVTALLLKEQGYDVIGVFMKNWDDTDEFGVCTATEDYKDVAAVADKIGIPYYSVNFEKEYWDRVFEYFLAEYRAGRTPNPDVMCNKEIKFKAFLDYAMTLGADYVATGHYAQVKRDENGTVHMLRGADNGKDQTYFLSQLSQEQLQKTLFPLGHLQKSEVREIAERAGLATAKKKDSTGICFIGEKNFKQFLSQYLPAQKGRMMTIDGRDMGEHAGLMYYTIGQRGGLGIGGQHGGDNQPWFVVGKDLSQNILYVGQGFYHEALMSNSLDASVIHFTREMPEEFTFECTAKFRYRQPDSHVAVHVRGDKAEVVFAEPQRAITPGQAVVFYDGKECLGGGMIDMAYKNGQPCQYI” stands “not soluble”; under “MTDPSSSPIRPDMVEAARKFMLTPKVKETPFEEQRQFLLGKGVSEAEILEARASIPPEQLRSQIGTENMIPIGGHPQMMIAPKQNGIVSFAQSAVVLGSISYAGYRFVRSYVLPRFFDIPDPATEEIRQLQSQVDDLQNSIKFIMDSVSQTTQQLATQQSEISRALYSVANRDADLNRVESGISTIKSLLLSQHNFAPIVTPSVTSSIPSWQQSATPTSATSITTTTTSEAASGYATPPANFKESSLADELADIENIE”, “not soluble”.

Regarding “MTDQLQHIRKPPRTGKAARSGTQDEIVYAHIFDAILEQRLAPGTKLSEEALGEIFGVSRTIIRRALSRLAHEQVVLLRPNRGAVVASPSIDEARQILFARRTVERAITELATDNATAERLAEL”, the “soluble on expression in E. coli” value is on record as “not soluble”. Under “MTDQMRDMIAQLMGSQHVDNKEKPSMPFDHHSVCRAFLLGVCPHDMVPDSRLQNVVSCRKVHEPAHKADYERAQKEKDHFYDVDAFEIIEHAVHLVDIEIAKVREKLEDDVKTQTSQAADSKAKQVAEIEEKIAKNVDDIEKLGNEGKIEESMKLHKYVEELREKIQEIEDSQTEVKTAGPGSNSAKLRVCEDCGAQLNITDHESRIADHYNGKMHIGMVETRETYLKMKETIDERRKEREEKLGSQRGYQRRESYGRRDRGGDRGEYRGDRDRDRRNRDRSRSRDRSYRRDDRGDRRYDRDNRDRRDRDRRY” stands “not soluble”; under “MTEAIHCIGCGAIIQTENPHELGYTPKTAFEKGMETGEVYCQRCFRLRHYNDIQDVQLTDDDFLRLLNGLGTEDALIVNVVDIFDFNGSLIPGLHRFIGDNPVLLVGNKVDILPKSLKKPKMVQWMRERAHEAGLRPVDVLLTSGKKPQEMQELLDTIEKYREGRDVYVVGVTNVGKSTLINQIIQQTVGVQDVITTSQFPGTTLDKIEIPLDDGHFLIDTPGIIHRHQMAHYLGKKDLKIIAPQKEIKPKVYQLNAEQTLFLGGLARFDYVQGAKSSFIAYVSNDLKLHRTKTATADAFYEKHVGGLLQPPRADEVAEFPELVRFEFSVKEKTDIVFAGLGWITVTEPGVVAGWAPKGVDVLRRKALILEHHHHHH”, “not soluble”; under “MTEKKSDRTAAKKRSEQAVHELVTRIDTHPGDADAYYELATVLVDLKSFAQAEELLMKALGLFQAQPAVVDKLHYGLGNVYYAAEDYPKAIQQFDSLGAQWKGAGYLMLAQSYMANGDHKRALAFALTALASQPDDVATLQVVAENLLALGNMAQAAQYYDQLLAIDPKNGRAIFDRGLVAMVQGTPYADYFERAQTLDPQYFEQGQQRLADIEKFMQQTPDSDQQLEHHHHHH”, “soluble”. As to “MTEKTTVKTLKDVVVRFCGDSGDGMQLTGTIFSDLSAVFGNTISTFPDYPAEIRAPQGTLGGVSGFQVHIGTDLVRTPGDLADVLVAMNPAALKVNRTHVRRDSIIIIDSDSFMASDLEKAEIASEDFMTELGLTTQELFTVPISSMVKKSTAEFGLDVKAALRCKNMFALGLVCWLFDRPTQHAIDYLNRKFGKKEAILNANIKALADGFNYGHNTHATATTYRIEGRKQTPGVYMDISGNKATAYGLVAAAEHANLNLFLGSYPITPATDILHELAKLKSLGVKTVQAEDEIAGICTAIGVSFAGDLAVTTTSGPGLALKSEALGLTVMAELPLVLVDVQRGGPSTGLPTKSEQTDLLQALFGRNGESPIPVIAATTPSDCFDSAFWACKIALEHMTPVILLTDAFIANGSSAWRIPDPQSYPDIRPPYVDQYKGEAKWRPYFRNEETHVRYWAIPGQEGFQHRLGGLEKDYVTGAISTNPENHAKMVATREAKVQAIAQDIPDLEVHGDKDDAELLIIGWGGTYGHLYETMERMRNAGKKVALAHFRFINPLPKNTAEVLQRYPKAVVAEQNLGQFALYLRGEVPGFHPLQFNRVTGQPLVMSEMVEVFTQMMEEK”, the “soluble on expression in E. coli” value is on record as “not soluble”. Regarding “MTELLVTPKSLSHMETLIDLGADAFVIGEQKFGLRLPGEFNRQQMTEAVALAHKNDKKVYAAVNGLFHNYHLDAVEDYINFLHEIRVDRIIFGDPAVVMYVKAQENPIPLHWNAETLVTNHFQCNYWGKRGASRAVLARELNLDEIINIKENSNVEIEVQVQGMTCMFQSKRMLLGNYYTFQDRQMKIERRNDEQSLLLYDEERQNNYPVYEDYNGTHIMSPNDICLIEELAPFFEAGIDSFKIDGILQTEEYINVVTEQYRQAIDLYNEDPEIYEDEKFMLMDPIEEIQPDHRPFDEGFLYKQTVY”, the “soluble on expression in E. coli” value is “not soluble”.

As for “MTEQLFDSLAKQNGFRVLSGGKYGGNNGFDHVWQAADGSVVLIVESKQIRNGTVQLNPNGAGGYTQMSREWIKQVVKSLPDGSPAKAVVLKANQNGKLKTAIAGVDRQTGKAVILSVKVPSKTNIRR”, the “soluble on expression in E. coli” value is “not soluble”. Consider “MTESDLRTHATEIHEQFSDQLEIDVDDVIERLDTLVNDYQVPISEARRSVVNTYLDEAGMDRDQLGGGDGGGNEQVNVADVDAPEEWVDVRATVVELWEPRADAVAQVGLLGDETGTIKFTKWSKSDLPSLEEGKSYALRNVVTDEYQGRFSVKLNRTTTIEELDEAIEVGDDSVEADGALVDIQSGSGLIKRCPEDDCTRVLQNGRCSEHGEVEGEFDLRIKGVLDDGEEVTEVIFDEDATEELTGIALEEAKEMAMDALDTTVVADEMRQKILGRYYRVRGPTFGRYLLADEQERLTGAVDADEILIKARSILEHHHHHH”, for which the “soluble on expression in E. coli” value is listed as “not soluble”. In the case of “MTETEQEAFADLVAELETQTAEAVKAFSKVFDRMEETNDDKEGLSLLKLKNYEMTAYLGELTVLMSKMMKGESITVEPSVKRALKHRVFIEKMKPVEDKMKPQIEKLLGRSSAESGASNGSSKGNHRVRLDNMDVEGDEEEEEEDEDDEEGKGAKEVKKYVAPRIRAVRYEEEDEAPNKQQEKAKRRAMQSSLIMELKNQYSDAPEEIREMSEKKYQYDRERERYEEDNFTRIRLNKDQKRRSEQLGRSETLDDLLSFGDYMMRGEDGRALSEGNKRKRATSSGAGGDTKRHKKSQKERKKAAKGKKEGRKRAIRRRQ” it was “not soluble”; in that of “MTEVVLHIYDVTNSGSEKTNNTIVQINRFFKDGIGLGGIFHSAIQVYGNDEWSYGYCELGTGVFSCPSGKNPMYTYREKIVLGKTDCTIFMVNQMLRELSREWPGHTYDLLSKNCNHFCDVLCDRLGVPKIPGWVNRFANAGDTALEVAGNTAMRMKQAKTELVSASKVAYRFLSNVTSNVTNGSNGSPQRPGTLNNSDSGNLRLQGSWLKGLLNTAKPSTSTEIGNKDEDANHAVTNQKKQSRDSDVLLFQ”, “not soluble”.

Take “MTFEEYQKEAQKTALYPEAYRLVYPALGLAGEAGELANKVKKVLRDHGGRLSEEAREAILAELGDVLWYVAQVATDLGESLEAVAQANLAKLRSRKERGRLGGDGDDR”: the “soluble on expression in E. coli” value is given as “soluble”.

For MTFEMLYSKIHRATITDANLNYIG, the “soluble on expression in E. coli” value is on record as “soluble”. In the case of “MTFLIPAYNEEKSIGPLIDRIKMLCPDSEIIVVDNNSSDRTSEIATSRGVRVIFEGKQGKANAMVAAFRNTRTEYAVMMDADLTYLPDDSRVLVEVLKAEGADVVLGSRLNGEKEDGAISRINTVGNHILSFTASILYSPVSDVCTGHWAFNRRAIRHILEEGLNYSGFELEAEMFSKLARAGLKIVEVPITYRKRSDEPKLSSFTDGFKIFRTLVLERLRLEHHHHHH” it was “not soluble”; in that of “MTFQNKKILVAGLGGTGISMIAYLRKNGAEVAAYDAELKAERVAQIGKMFDGLVFYTGRLKDALDNGFDILALSPGISERQPDIEAFKQNGGRVL”, “not soluble”.
